Reference: publication PMC11339918, “Extracellular Domain of IL-10 Receptor Chain-2 (IL-10R2) and Its Arginine-Containing Peptides Are Susceptible Substrates for Human Prostate Kallikrein-2 (KLK2)” (Biochemistry, 2024)
“Also recorded” adds a separate entry of the source. Non-standard residues stand in square brackets, D forms with d. No end group written: not given here. *: point of attachment. EDDnp = O=[N+]([O-])c1ccc(NCCN*)c([N+](=O)[O-])c1; 2Abz = Nc1ccccc1C(=O)O

Biological target: T1, Recombinant KLK2 (Homo sapiens, UniProt P20151)
T1 construct: made in house; host or cells: baculovirus-insect cell line system
Assay: Hydrolysis of FRET peptides by recombinant KLK2 (kinetic parameters)
Format: biochemical
Details: for hydrolysis by KLK2 (in words): FRET peptides derived from the IL-10R2 ectodomain
Excerpt: Obtained from a baculovirus-insect cell line system, purified, and activated as previously reported,[14] MUGB (4-methylumbelliferyl p-guanidino benzoate hydrochloride) was used for the spectrofluorimetric determination of molar concentrations of active KLK2.[15] KLK3 was obtained and assayed as previously reported.[3]
All of the FRET peptides were obtained by solid-phase peptide synthesis. The purity of FRET peptides to 95% or higher was obtained by semipreparative HPLC on a C18 reversed-phase column and used as protease substrates, as previously reported.[5] Details about the purification and quality of the FRET peptides are provided in the Supporting Information. The enzymatic kinetic measurements were all performed with FRET peptides as previously described.[5]
Five series of FRET peptides derived from Abz-KLRSSK-Q-EDDnp were assayed with KLK2 in 20 mM Tris–HCl, pH 8.0, and 1 M sodium citrate. […] The specificity of subsites S3, S2, S1’, and S2’ was explored by the FRET peptide series Abz-XLRSSKQ-EDDnp (for S3), Abz-KXRSSKQ-EDDnp (for S2), Abz-KLRXSKQ-EDDnp (for S1’), and Abz-KLRSXKQ-EDDnp (for S2’). All of them were hydrolyzed only at R–S or R–X peptide bonds, and the kinetic parameters for their hydrolysis by KLK2 are listed in Table 1.

[1] = pH 8.0, 20 mM Tris–HCl, 1 M sodium citrate, 37 °C, KLK2 1.6 nM, three enzymatic reactions, standard errors 5% or less
[2] = Table 3, FRET peptides derived from the IL-10R2 ectodomain

T1 sequence (P20151 25-261): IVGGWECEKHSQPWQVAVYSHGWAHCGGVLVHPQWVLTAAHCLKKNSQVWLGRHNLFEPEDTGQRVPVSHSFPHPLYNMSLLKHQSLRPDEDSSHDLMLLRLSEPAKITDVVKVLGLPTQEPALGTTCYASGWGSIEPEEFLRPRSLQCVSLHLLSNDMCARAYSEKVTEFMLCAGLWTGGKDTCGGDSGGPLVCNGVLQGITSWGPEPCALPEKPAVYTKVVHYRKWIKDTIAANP

| Substance | Km [1] [µM] | kcat [1] [s^–1] | kcat/Km [1] [s^–1 mM^–1] | hydrolysis by KLK2 (in words) | Km [2] [µM] | kcat [2] [s^–1] | kcat/Km [2] [mM s–1] | kcat/Km (20 mM Tris–HCl, pH 8.0, 1 M sodium citrate) [mM^–1 s^–1] |
| --- | --- | --- | --- | --- | --- | --- | --- | --- |
| Abz-KLRXSKQ-EDDnp, X = F: FRET peptide, S1’ series, X = F ([2Abz]KLRFSKQ-EDDnp) | 1.2 | 3.5 | 2917 |  |  |  |  |  |
| Abz-LSKYGD-Q-EDDnp [FRET peptide derived from the IL-10R2 ectodomain, ^79LSKYG^84D] |  |  |  | resistant to hydrolysis; also recorded: no hydrolysis |  |  |  |  |
| Abz-KLRSXKQ-EDDnp, X = F: FRET peptide, S2’ series, X = F ([2Abz]KLRSFKQ-EDDnp) | 2.4 | 12.4 | 5167 |  |  |  |  |  |
| Abz-KXRSSKQ-EDDnp, X = N: FRET peptide, S2 series, X = N (Abz-KNRSSKQ-EDDnp) | 10.1 | 3.3 | 327 |  |  |  |  |  |
| Abz-KXRSSKQ-EDDnp, X = I: FRET peptide, S2 series, X = I [Abz-KXRSSKQ-EDDnp, X = I] (Abz-KIRSSKQ-EDDnp) | 4.5 | 4.7 | 1044 |  |  |  |  |  |
| Abz-KXRSSKQ-EDDnp, X = F: FRET peptide, S2 series, X = F ([2Abz]KFRSSKQ-EDDnp) | 1.6 | 4.1 | 2563 |  |  |  |  |  |
| Abz-XLRSSKQ-EDDnp, X = H: FRET peptide, S3 series, X = H (N-terminal Abz, C-terminal EDDnp; X = H) | 4.2 | 17.2 | 4095 |  |  |  |  |  |
| Abz-KLRXSKQ-EDDnp, X = V: FRET peptide, S1’ series, X = V ([2Abz]KLRVSKQ-EDDnp) | 2.2 | 8.1 | 3682 |  |  |  |  |  |
| Abz-XLRSSKQ-EDDnp, X = V: FRET peptide, S3 series, X = V [Abz-XLRSSKQ-EDDnp, X = V] (Abz-VLRSSKQ-EDDnp) | 4.7 | 17.9 | 3808 |  |  |  |  |  |
| Abz-LPDRNK-Q-EDDnp [FRET peptide derived from the IL-10R2 ectodomain, ^195LPDRN^200K] |  |  |  | resistant to KLK2; also recorded: no hydrolysis |  |  |  |  |
| Abz-KXRSSKQ-EDDnp, X = H: FRET peptide, S2 series, X = H (N-terminal Abz, C-terminal EDDnp; X = H) | 9.6 | 4.7 | 490 |  |  |  |  |  |
| Abz-KXRSSKQ-EDDnp, X = A: FRET peptide, S2 series, X = A [Abz-KXRSSKQ-EDDnp, X = A] ([2Abz]KARSSKQ-EDDnp) | 4.8 | 2.2 | 458 |  |  |  |  |  |
| Abz-XLRSSKQ-EDDnp, X = N: FRET peptide, S3 series, X = N (Abz-NLRSSKQ-EDDnp) | 7.8 | 26.7 | 3423 |  |  |  |  |  |
| Abz-KXRSSKQ-EDDnp, X = T: FRET peptide, S2 series, X = T (Abz-KTRSSKQ-EDDnp) | 10.5 | 3.6 | 343 |  |  |  |  |  |
| Abz-KXRSSKQ-EDDnp, X = S: FRET peptide, S2 series, X = S (Abz-KSRSSKQ-EDDnp) | 9.1 | 1.1 | 121 |  |  |  |  |  |
| Abz-KXRSSKQ-EDDnp, X = Q: FRET peptide, S2 series, X = Q [Abz-KXRSSKQ-EDDnp, X = Q] (Abz-KQRSSKQ-EDDnp) | 8.3 | 6.4 | 771 |  |  |  |  |  |
| Abz-KLRXSKQ-EDDnp, X = H: FRET peptide, S1’ series, X = H (N-terminal Abz, C-terminal EDDnp; X = H) | 4.3 | 8.0 | 1860 |  |  |  |  |  |
| Abz-KLRSXKQ-EDDnp, X = R: FRET peptide, S2’ series, X = R ([2Abz]KLRSRKQ-EDDnp) | 3.6 | 3.2 | 888 |  |  |  |  |  |
| Abz-TLRVRAE-Q-EDDnp [FRET peptide derived from the IL-10R2 ectodomain, ^86TLRVRA^92E] |  |  |  |  | 1.34 | 2.47 | 1843 |  |
| Abz-KLRSSKQ-EDDnp [parent FRET peptide, cleaved at the R–S peptide bond by KLK2] | 6.5 | 11.3 | 1738 |  |  |  |  | 1738 |
| Abz-KXRSSKQ-EDDnp, X = K: FRET peptide, S2 series, X = K (Abz-KKRSSKQ-EDDnp) | 7.2 | 3.0 | 417 |  |  |  |  |  |

| Substance | Km [1] [µM] | kcat [1] [s^–1] | kcat/Km [1] [s^–1 mM^–1] | hydrolysis by KLK2 (in words) | Km [2] [µM] | kcat [2] [s^–1] | kcat/Km [2] [mM s–1] | kcat/Km (20 mM Tris–HCl, pH 8.0, 1 M sodium citrate) [mM^–1 s^–1] |
| --- | --- | --- | --- | --- | --- | --- | --- | --- |
| Abz-KXRSSKQ-EDDnp, X = V: FRET peptide, S2 series, X = V (Abz-KVRSSKQ-EDDnp) | 8.5 | 9.9 | 1165 |  |  |  |  |  |
| Abz-KLRXSKQ-EDDnp, X = L: FRET peptide, S1’ series, X = L ([2Abz]KLRLSKQ-EDDnp) | 3.3 | 6.7 | 2030 |  |  |  |  |  |
| Abz-KXRSSKQ-EDDnp, X = E: FRET peptide, S2 series, X = E [Abz-KXRSSKQ-EDDnp, X = E] ([2Abz]KERSSKQ-EDDnp) | 9.1 | 1.0 | 110 |  |  |  |  |  |
| Abz-XLRSSKQ-EDDnp, X = E: FRET peptide, S3 series, X = E (Abz-ELRSSKQ-EDDnp) | 7.6 | 7.4 | 974 |  |  |  |  |  |
| Abz-XLRSSKQ-EDDnp, X = S: FRET peptide, S3 series, X = S (Abz-SLRSSKQ-EDDnp) | 3 | 29.8 | 9933 |  |  |  |  |  |
| Abz-KLRXSKQ-EDDnp, X = Q: FRET peptide, S1’ series, X = Q ([2Abz]KLRQSKQ-EDDnp) | 6.1 | 8.5 | 1393 |  |  |  |  |  |
| Abz-KXRSSKQ-EDDnp, X = Y: FRET peptide, S2 series, X = Y [Abz-KXRSSKQ-EDDnp, X = Y] (Abz-KYRSSKQ-EDDnp) | 5.6 | 12.8 | 2304 |  |  |  |  |  |
| Abz-KXRSSKQ-EDDnp, X = R: FRET peptide, S2 series, X = R (Abz-KRRSSKQ-EDDnp) | 5.2 | 8.7 | 1673 |  |  |  |  |  |
| Abz-KLRSXKQ-EDDnp, X = A: FRET peptide, S2’ series, X = A ([2Abz]KLRSAKQ-EDDnp) | 3.8 | 12.2 | 3211 |  |  |  |  |  |
| Abz-KLRSXKQ-EDDnp, X = G: FRET peptide, S2’ series, X = G ([2Abz]KLRSGKQ-EDDnp) | 4.5 | 3.5 | 778 |  |  |  |  |  |
| Abz-KLRXSKQ-EDDnp, X = E: FRET peptide, S1’ series, X = E ([2Abz]KLRESKQ-EDDnp) | 6.6 | 10.3 | 1561 |  |  |  |  |  |
| Abz-KLRXSKQ-EDDnp, X = I: FRET peptide, S1’ series, X = I ([2Abz]KLRISKQ-EDDnp) | 1.8 | 7.2 | 4000 |  |  |  |  |  |
| Abz-KLRXSKQ-EDDnp, X = R: FRET peptide, S1’ series, X = R ([2Abz]KLRRSKQ-EDDnp) | 5.4 | 8.2 | 1519 |  |  |  |  |  |
| Abz-XLRSSKQ-EDDnp, X = R: FRET peptide, S3 series, X = R (Abz-RLRSSKQ-EDDnp) | 3.9 | 22.3 | 5718 |  |  |  |  |  |
| Abz-KLRSXKQ-EDDnp, X = H: FRET peptide, S2’ series, X = H (N-terminal Abz, C-terminal EDDnp; X = H) | 5.9 | 4.4 |  |  |  |  |  |  |
| Abz-KLRSXKQ-EDDnp, X = N: FRET peptide, S2’ series, X = N ([2Abz]KLRSNKQ-EDDnp) | 8.8 | 4.9 | 557 |  |  |  |  |  |
| Abz-XLRSSKQ-EDDnp, X = F: FRET peptide, S3 series, X = F [Abz-XLRSSKQ-EDDnp, X = F] (Abz-FLRSSKQ-EDDnp) | 6.6 | 9.6 | 1455 |  |  |  |  |  |
| Abz-KLRXSKQ-EDDnp, X = G: FRET peptide, S1’ series, X = G ([2Abz]KLRGSKQ-EDDnp) | 7.3 | 19.9 |  |  |  |  |  |  |
| Abz-KLRSXKQ-EDDnp, X = V: FRET peptide, S2’ series, X = V ([2Abz]KLRSVKQ-EDDnp) | 4.2 | 15.3 | 3643 |  |  |  |  |  |
| Abz-KLRSXKQ-EDDnp, X = L: FRET peptide, S2’ series, X = L ([2Abz]KLRSLKQ-EDDnp) | 2.8 | 8.5 | 3036 |  |  |  |  |  |
